We go through four molecules from patent US20220073617A1 (Five Prime, published 2022).

The target in experiment [1] is T1, monovalent hVISTA-ECD (human VISTA extracellular domain with His tail) (human, UniProt Q9H7M9 33-193).
T1 construct: analyte flowed over captured antibody; also called huVISTA-His
Nature of the experiment: SPR, pH 6.0.

Experiment [2] concerns the target T2, cyno VISTA-ECD (cynomolgus VISTA extracellular domain with His tail) (cynomolgus macaque, UniProt Q9H7M9 33-193 (human entry)).
T2 construct: also called cyVISTA-His
T2 chain: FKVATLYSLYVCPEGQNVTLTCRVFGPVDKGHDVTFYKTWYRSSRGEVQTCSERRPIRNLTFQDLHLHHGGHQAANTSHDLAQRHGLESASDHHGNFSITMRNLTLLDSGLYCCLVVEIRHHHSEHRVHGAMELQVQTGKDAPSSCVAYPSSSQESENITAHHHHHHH
Nature of the experiment: SPR, pH 6.0. (In SPR one partner is held on a chip, and binding of the other changes the refractive index at the surface.)

Experiment [3] has as its target T1, monovalent hVISTA-ECD (human VISTA …). The experiment can be described thus: SPR, pH 7.4.
For experiment [4], the target named is T2, cyno VISTA-ECD (cynomolgus VISTA …). Nature of the experiment: SPR, pH 7.4.
The target of experiment [5] is T1, monovalent hVISTA-ECD (human VISTA …). Nature of the experiment: SPR, pH 6.0. As for the experimental part: (§1) Binding of several preparations of each of the '029 progeny clones and of the parent '029 antibodies, formatted as IgG1.3 antibodies, to human VISTA at pH 6.0 and 7.4 was measured by Surface plasmon resonance (SPR). SPR analysis was performed to measure koff and KD binding affinity measurements for VISTA Abs at acidic and neutral pHs using a Biacore® T100 instrument (GE Healthcare). Protein A (ThermoFisher Scientific catalog #21181) was diluted to 20 ug/ml in 10 mM sodium acetate pH 4.5 and immobilized onto flow cells of a CM5 biosensor following the manufacturer's amine coupling protocol (GE Healthcare), targeting 2,000 RU immobilization density of Protein A per flow cell. SPR experiments were conducted at 37° C. using PBST (137 mM sodium chloride, 2.7 mM potassium chloride, 10 mM phosphate buffer, 0.05% Tween® 20) running buffer at pH 7.4 and 6.0. Antibodies were diluted to 25 nM in PBST pH 7.4, and were captured across active biosensor flow cells at 5 ul/min for 60 seconds. […] Two 15 second injections of 10 mM glycine pH 1.5 were used to regenerate the Protein A capture surface between assay cycles. Rate constants ka (kₒₙ) and kd (koff) were derived from reference flow cell and 0 nM blank-subtracted sensorgrams, and were fit to a 1:1 binding model in Biacore® T200 Evaluation Software v.2.0. The affinity constant, KD was calculated as the ratio of rate constants koff/kₒₙ for each VISTA antibody.
(§2) This initial campaign led to pH-independent VISTA.4 variants with near equivalent koff at pH 6 and pH 7. In order to obtain an antibody that binds to hVISTA with high affinity at pH 6.0 and low affinity at pH 7.0, a new library based on consensus sequence of pH-independent VISTA.4 variants was designed and constructed, with amino acid residues in the loops substituted for charge amino acid residues (see Example 9), and screened via yeast surface display (see Example 9). The library was analyzed as previously described (see Example 9) and selected variants were reformatted as IgG1.3 for further analysis (Tables 26 and 27). SPR analysis was conducted on these variants using the conditions previously described in Example 9.
The source holds these as a separate data set.

Experiment [6] shares this target. The experiment can be described thus: SPR, pH 6.0, average. As for the experimental part: as §1, with “antibody. […]” for “antibody.”
The target is the same in experiment [7]. Nature of the experiment: SPR, pH 7.4. As for the experimental part:
as §1
This is another data set of the same source.

The target is the same in experiment [8]. Nature of the experiment: SPR.
The target is the same in experiment [9]. Nature of the experiment: SPR, pH 7.4, average. The protocol: as §1
Some of the VISTA.4 mutants described above and new mutants were tested for binding to hVISTA, according to the methods described in Example 9. […] Antibody 41F11_VH_T28P/Y50W/S55E/D95H/L96E/P97E/Y100E; VK_A64G (P1-070976) is the only VISTA.4 derivative that is pH selective.

Experiment [10] has the same target. Nature of the experiment: SPR, pH 6.0. The source holds these as a separate data set.
The target is the same in experiment [11]. The experiment can be described thus: SPR, pH 7.4. The source holds these as a separate data set.
Experiment [12] shares this target. The experiment can be described thus: SPR, pH 6.0. The protocol:
as §1
The source holds these as a separate data set.

Experiment [13] has the same target. Nature of the experiment: SPR, pH 7.4. The protocol:
as §1, §2
This is another data set of the same source.

Experiment [14] shares this target. Nature of the experiment: SPR. The protocol:
as §1
The source holds these as a separate data set.

Experiment [15] concerns the target avidin (ThermoFisher Scientific catalog #21128) (UniProt P02701 25-152). The experiment can be described thus: SPR 25C pH 6.0 and 7.4. The protocol: (§3) The binding specificity of the '029, '761 and '767 clones to VISTA and to other high pI proteins was evaluated by SPR at neutral and acidic pH using a Biacore® T100 instrument (GE Healthcare). Protein A (ThermoFisher Scientific catalog #21181) was diluted to 20 ug/ml in 10 mM sodium acetate pH 4.5 and immobilized onto flow cells of a CM3 biosensor following the manufacturer's amine coupling protocol (GE Healthcare), targeting 800 RU immobilization density of Protein A per flow cell. SPR experiments were conducted at 25° C. using PBST (137 mM sodium chloride, 2.7 mM potassium chloride, 10 mM phosphate buffer, 0.05% Tween 20) running buffer at pH 7.4 and 6.0. Antibodies (formatted as IgG1.3 antibodies) were diluted to 50 nM in PBST pH 7.4, and were captured across active biosensor flow cells at 5 ul/min for 60 seconds. […] Two 15 second injections of 10 mM glycine pH 1.5 were used to regenerate the Protein A capture surface between assay cycles. Reference flow cell and 0 nM blank-subtracted sensorgrams were inspected using Biacore® T200 Evaluation Software v.2.0. The results are shown in […]

In experiment [16] the target is BSA (Calbiochem catalog #126593) (UniProt P02769 25-607). Nature of the experiment: SPR 25C pH 6.0 and 7.4. As for the experimental part: as §3
Sequence of BSA (Calbiochem catalog #126593) (P02769 25-607 limits assumed): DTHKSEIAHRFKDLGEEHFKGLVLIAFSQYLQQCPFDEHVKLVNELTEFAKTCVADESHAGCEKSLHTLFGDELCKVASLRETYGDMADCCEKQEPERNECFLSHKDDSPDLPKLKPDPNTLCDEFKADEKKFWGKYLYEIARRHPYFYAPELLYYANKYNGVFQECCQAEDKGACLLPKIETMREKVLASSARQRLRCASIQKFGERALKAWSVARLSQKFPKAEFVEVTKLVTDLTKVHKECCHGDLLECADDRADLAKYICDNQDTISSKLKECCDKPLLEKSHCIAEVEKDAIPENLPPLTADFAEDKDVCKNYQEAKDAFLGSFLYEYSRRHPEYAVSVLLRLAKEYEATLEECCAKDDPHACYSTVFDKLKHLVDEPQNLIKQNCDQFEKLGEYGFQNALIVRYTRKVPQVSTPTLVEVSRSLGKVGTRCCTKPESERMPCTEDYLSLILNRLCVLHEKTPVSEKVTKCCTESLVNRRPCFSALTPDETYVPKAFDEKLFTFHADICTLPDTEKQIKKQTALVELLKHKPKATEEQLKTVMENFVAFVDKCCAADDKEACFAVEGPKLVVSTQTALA

Sequence of avidin (ThermoFisher Scientific catalog #21128) (P02701 25-152 limits assumed): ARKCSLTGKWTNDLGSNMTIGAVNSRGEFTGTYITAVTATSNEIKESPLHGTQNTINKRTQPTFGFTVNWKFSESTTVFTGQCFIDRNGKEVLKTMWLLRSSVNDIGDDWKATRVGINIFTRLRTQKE

B1: P1-072315 (41F11_VH_T28P/Y50W/S55E/L96E/Y100E VK_A64G) (antibody, V domains shown)
VH: QVQLVESGGGLVKPGGSLRLSCAASGFPFSDYYMSWIRQAPGKGLEWVSWISNSGEPIYYADSVKGRFTISRDNAKNSLYLQMNSLRAEDTAVYYCARDEPGWEFDLWGRGTLVTVSS
VL: EIVLTQSPATLSLSPGERATLSCRASQSVSSYLAWYQQKPGQAPRLLIYDASNRATGIPARFSGSGSGTDFTLTISSLEPEDFAVYYCQQRNNWPRTFGQGTKVEIK
notes: Same variable-region description as P1-065333 under another ID; also called P1-072315-1
For the molecule B1, the Kd (usually the concentration at which binding is half-saturated) in experiment [1] turned out to be 0.35 nM; in [2], 0.6 nM; in experiment [3], 2.5 nM; in [4], 1.9 nM. In addition, the koff (as a rule, a measure of how fast the partners let go of each other) in [1] worked out at 0.0015 s⁻¹; in [2], 0.0016 s⁻¹; in [3], 0.00079 s⁻¹; in [4] it was 0.00068 s⁻¹. Also, the kon (as a rule, the rate constant with which the complex forms) in experiment [1] worked out at 4.2e+06 M⁻¹ s⁻¹; in experiment [2], 2.7e+06 M⁻¹ s⁻¹; in experiment [3], 320000 M⁻¹ s⁻¹; in [4] it was 350000 M⁻¹ s⁻¹.

B2: P1-070976 (41F11_VH_T28P/Y50W/S55E/D95H/L96E/P97E/Y100E; Vk_A64G) (antibody, human IgG1, kappa, V domains shown)
VH: QVQLVESGGGLVKPGGSLRLSCAASGFPFSDYYMSWIRQAPGKGLEWVSWISNSGEPIYYADSVKGRFTISRDNAKNSLYLQMNSLRAEDTAVYYCARHEEGWEFDLWGRGTLVTVSS
VL: EIVLTQSPATLSLSPGERATLSCRASQSVSSYLAWYQQKPGQAPRLLIYDASNRATGIPARFSGSGSGTDFTLTISSLEPEDFAVYYCQQRNNWPRTFGQGTKVEIKR
notes: IgG1.3; also called P1-070976-7; acidic pH selective VISTA.4 progeny
Take B2: the Kd in experiment [1] was 13 nM; in experiment [2], 24 nM; in experiment [5], 15 nM; in experiment [3], 2300 nM; in experiment [4] it was 5900 nM; in experiment [6], 23 nM. The koff in [1] worked out at 0.0028 s⁻¹; in experiment [2], 0.0038 s⁻¹; in experiment [5], 0.0028 s⁻¹; in [3], 0.14 s⁻¹; in experiment [4] it was 0.026 s⁻¹; in [6], 0.0026 s⁻¹. Also, the kon worked out at 230000 M⁻¹ s⁻¹ in experiment [1]; 160000 M⁻¹ s⁻¹ in [2]; 190000 M⁻¹ s⁻¹ in [5]; 61000 M⁻¹ s⁻¹ in experiment [3]; 4400 M⁻¹ s⁻¹ in experiment [4]; 110000 M⁻¹ s⁻¹ in experiment [6].

B3: P1-065333 (41F11_VH_T28P/Y50W/S55E/L96E/Y100E VK_A64G) (antibody, human IgG1, kappa, V domains shown)
VH: QVQLVESGGGLVKPGGSLRLSCAASGFPFSDYYMSWIRQAPGKGLEWVSWISNSGEPIYYADSVKGRFTISRDNAKNSLYLQMNSLRAEDTAVYYCARDEPGWEFDLWGRGTLVTVSS
VL: EIVLTQSPATLSLSPGERATLSCRASQSVSSYLAWYQQKPGQAPRLLIYDASNRATGIPARFSGSGSGTDFTLTISSLEPEDFAVYYCQQRNNWPRTFGQGTKVEIKR
notes: IgG1.3; also called P1-065333-1; VISTA.4 pH-independent progeny
As for B3, the Kd is 1.9 nM in [7]; 3.2 nM in experiment [9]; 0.434 nM in experiment [10]; 0.47 nM in [5]; 3.17 nM in experiment [11]; 0.38 nM in experiment [12]. Further, the Kd in experiment [13] was 2.2 nM; in [6], 0.56 nM. In addition, the “kd improvement vs parent” value is 1 fold in experiment [7] and 81.7 fold in experiment [12]. The koff in experiment [7] came to 0.00093 s⁻¹; in [9], 0.00078 s⁻¹; in experiment [10], 0.00142 s⁻¹; in experiment [5] it was 0.0018 s⁻¹; in experiment [11], 0.000883 s⁻¹; in [12] it was 0.0013 s⁻¹. Further, the koff in experiment [13] was found to be 0.00094 s⁻¹; in experiment [6] it was 0.0015 s⁻¹. For the same molecule, the kon is 480000 M⁻¹ s⁻¹ in [7]; 240000 M⁻¹ s⁻¹ in [9]; 3.28e+06 M⁻¹ s⁻¹ in [10]; 3.8e+06 M⁻¹ s⁻¹ in [5]; 278000 M⁻¹ s⁻¹ in [11]; 3.4e+06 M⁻¹ s⁻¹ in experiment [12]. The kon turned out to be 430000 M⁻¹ s⁻¹ in experiment [13] and 2.7e+06 M⁻¹ s⁻¹ in experiment [6]. For the same molecule, the “KD ratio (pH 7.4/pH 6.0)” value in experiment [8] came to 7.3. In addition, the “pH 6.0/7.4 KD” value in experiment [14] is 0.2. The “pH 6.0/7.4 kd” value in experiment [14] was 1.4.

B4: P1-068767.IgG1.3 (antibody, V domains shown)
VH: EVQLVESGGGLVQPGKSLRLSCAASGFTLEDYAMHWVRQAPGKGLEWVSGIDWNSENIGYADSVKGRFTISRDNAKNSLYLQMNSLRTEDTALYYCAKVPGYSGGWIDAEDDWGQGTMVTVSS
VL: not shown
notes: also called P1-068767 hIgG1.3f; VISTA.18
For B4, the binding result in experiment [15] is listed as “no binding (tested: <=10 RU, 100-10 nM)”; in [16], “no binding (tested: <=10 RU, 100-10 nM)”.
